Measured values reported in patent publication US12168063B2, “Stable, concentrated radionuclide complex solutions” (Advanced Accelerator Applications SA, priority 2018, dated 2024).

Legend:
[1] = Stability study after storage: chemical purity (peptide purity) by RP-UV-HPLC; format: physicochemical
[2] = after 72 hours at 25° C.

Row | Compound | stability with respect to chemical purity ([1]; 32° C. for 12 h and 25° for 60 h) | chemical purity ([1]; after 48 hours at 32° C.) | chemical purity ([1]; after 72 hours at 25° C.) | radiochemical purity [2]
1 | C[C@@H](O)[C@H](NC(=O)[C@@H]1CSSC[C@H](NC(=O)[C@@H](Cc2ccccc2)NC(=O)CN2CCN(CC(=O)O)CCN(CC(=O)O)CCN(CC(=O)O)CC2)C(=O)N[C@@H](Cc2ccc(O)cc2)C(=O)N[C@H](Cc2c[nH]c3ccccc23)C(=O)N[C@@H](CCCCN)C(=O)N[C@@H]([C@@H](C)O)C(=O)N1)C(=O)O [DOTA-TATE, DOTA-d-Phe-Cys-Tyr-d-Trp-Lys-Thr-Cys-Thr (cyclo 2,7)] | such high stability was found | 100% | 100% | –
2 | hydrogen [N-{[4,7,10-tris(carboxylato-κO-methyl)-1,4,7,10-tetraazacyclododecan-1-yl-κ^4N^1,N^4,N^7,N^10]acetyl-κO}-D-phenylalanyl-L-cysteinyl-tyrosyl-D-tryptophyl-L-lysyl-L-threonyl-L-cysteinyl-L-threoninato cyclic (2→7)-disulfide(4-)](177Lu)lutetate(1-) [^177Lu-DOTA-TATE] | – | – | – | at least 95%
